Laboratory results: article PMC2756588

T1: Abp1, P15891
T1 sequence (P15891 535-592, looked up): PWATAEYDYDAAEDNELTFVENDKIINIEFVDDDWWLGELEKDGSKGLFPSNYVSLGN

T2: Bbc1, P47068
T2 sequence (P47068 1-78, looked up): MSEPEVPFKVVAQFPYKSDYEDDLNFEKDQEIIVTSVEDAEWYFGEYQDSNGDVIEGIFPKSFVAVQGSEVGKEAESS

T3: Boi1, P38041
T3 sequence (P38041 1-86, looked up): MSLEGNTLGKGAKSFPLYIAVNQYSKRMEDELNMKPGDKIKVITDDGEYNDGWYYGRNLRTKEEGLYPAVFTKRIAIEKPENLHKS

T4: Boi2, P39969
T4 sequence (P39969 32-116, looked up): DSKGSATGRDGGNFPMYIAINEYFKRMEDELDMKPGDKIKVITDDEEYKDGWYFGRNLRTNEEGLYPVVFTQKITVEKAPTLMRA

T5: Bud14, P27637
T5 sequence (P27637 247-328, looked up): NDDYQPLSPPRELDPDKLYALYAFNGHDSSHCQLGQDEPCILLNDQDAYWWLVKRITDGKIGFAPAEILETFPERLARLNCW

T6: Bzz1-1, P38822
T6 sequence (P38822 478-572, looked up): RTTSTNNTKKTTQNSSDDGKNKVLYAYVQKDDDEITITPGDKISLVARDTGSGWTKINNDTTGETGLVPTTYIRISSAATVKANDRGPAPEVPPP

T7: Bzz1-2, P38822
T7 sequence (P38822 568-633, looked up): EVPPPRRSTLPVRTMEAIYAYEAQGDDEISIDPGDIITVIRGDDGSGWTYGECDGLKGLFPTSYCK

T8: Cdc25, P04821
T8 sequence (P04821 50-136, looked up): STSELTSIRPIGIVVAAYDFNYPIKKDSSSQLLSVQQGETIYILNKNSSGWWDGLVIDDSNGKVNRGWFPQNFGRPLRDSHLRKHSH

T9: Cyk3, Q07533
T9 sequence (Q07533 1-83, looked up): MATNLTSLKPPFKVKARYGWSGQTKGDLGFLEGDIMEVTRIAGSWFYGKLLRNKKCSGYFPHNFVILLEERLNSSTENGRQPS

T10: Fus1, P11710
T10 sequence (P11710 432-512, looked up): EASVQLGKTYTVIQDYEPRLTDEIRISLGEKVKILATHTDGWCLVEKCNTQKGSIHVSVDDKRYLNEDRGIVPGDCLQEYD

T11: Hof1, Q05080
T11 sequence (Q05080 590-669, looked up): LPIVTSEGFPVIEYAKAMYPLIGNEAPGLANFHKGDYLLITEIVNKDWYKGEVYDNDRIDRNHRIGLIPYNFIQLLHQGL

T12: Hse1, P38753
T12 sequence (P38753 208-285, looked up): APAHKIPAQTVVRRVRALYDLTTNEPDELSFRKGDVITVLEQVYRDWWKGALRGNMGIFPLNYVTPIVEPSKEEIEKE

T13: Lsb1, P53281
T13 sequence (P53281 45-122, looked up): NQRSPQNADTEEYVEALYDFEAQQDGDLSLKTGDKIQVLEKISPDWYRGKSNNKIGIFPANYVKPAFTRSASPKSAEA

T14: Lsb3, P43603
T14 sequence (P43603 385-451, looked up): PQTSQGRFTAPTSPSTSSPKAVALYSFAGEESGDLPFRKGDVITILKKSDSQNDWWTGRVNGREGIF

T15: Lsb4, P32793
T15 sequence (P32793 402-468, looked up): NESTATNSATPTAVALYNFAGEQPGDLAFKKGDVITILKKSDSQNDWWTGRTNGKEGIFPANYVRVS

T16: Myo5, Q04439
T16 sequence (Q04439 1072-1160, looked up): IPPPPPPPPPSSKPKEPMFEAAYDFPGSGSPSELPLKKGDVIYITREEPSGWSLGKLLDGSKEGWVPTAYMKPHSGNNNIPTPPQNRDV

T17: Nbp2, Q12163
T17 sequence (Q12163 103-180, looked up): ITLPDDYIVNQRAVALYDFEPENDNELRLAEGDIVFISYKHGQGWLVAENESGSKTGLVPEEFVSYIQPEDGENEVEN

T18: Pex13, P80667
T18 sequence (P80667 295-386, looked up): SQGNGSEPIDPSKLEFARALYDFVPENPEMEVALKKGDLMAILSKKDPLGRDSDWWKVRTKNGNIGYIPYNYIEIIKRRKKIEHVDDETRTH

T19: Pin3, Q06449
T19 sequence (Q06449 53-122, looked up): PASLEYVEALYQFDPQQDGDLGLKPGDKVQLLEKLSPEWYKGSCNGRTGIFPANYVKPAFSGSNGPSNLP

T20: Sla1-2, P32790
T20 sequence (P32790 60-140, looked up): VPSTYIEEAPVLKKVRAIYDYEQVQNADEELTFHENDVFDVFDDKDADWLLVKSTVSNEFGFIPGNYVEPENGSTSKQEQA

T21: Sla1-3, P32790
T21 sequence (P32790 344-424, looked up): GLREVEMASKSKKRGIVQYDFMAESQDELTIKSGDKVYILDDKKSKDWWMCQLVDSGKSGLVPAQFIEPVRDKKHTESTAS

B1: unnamed (peptide)
chain: PSTMDFPKLPSFQNS
B2: unnamed (peptide)
chain: QTMRQAPKRPDADVA
B3: unnamed (peptide)
chain: NSMRPPLLIPAATTK
B4: unnamed (peptide)
chain: VFQFQMPTTPISTKM

molecular target: T1, Abp1, P15891; assay: SPOT array; conditions: median of control spots 935

Row | Binder | SPOT intensity
1 | B1 | 99
2 | B2 | 81
3 | B3 | 87
4 | B4 | 32

molecular target: T2, Bbc1, P47068; assay: SPOT array; conditions: median of control spots 796

Row | Binder | SPOT intensity
5 | B1 | 0
6 | B2 | 90
7 | B3 | 0
8 | B4 | 0

molecular target: Bem1-1, P29366; assay: SPOT array; conditions: median of control spots 4282
Sequence (P29366 55-141): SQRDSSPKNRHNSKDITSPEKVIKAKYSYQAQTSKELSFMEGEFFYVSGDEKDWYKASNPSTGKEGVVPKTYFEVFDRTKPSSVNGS

Row | Binder | SPOT intensity
9 | B1 | 0
10 | B2 | 1
11 | B3 | 5
12 | B4 | 0

molecular target: Bem1-2, P29366; assay: SPOT array; conditions: median of control spots 4347
Sequence (P29366 139-227): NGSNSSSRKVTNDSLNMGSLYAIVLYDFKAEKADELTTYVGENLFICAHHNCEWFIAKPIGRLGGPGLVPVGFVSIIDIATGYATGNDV

Row | Binder | SPOT intensity
13 | B1 | 8
14 | B2 | 65
15 | B3 | 6
16 | B4 | 5

molecular target: T3, Boi1, P38041; assay: SPOT array; conditions: median of control spots 1162

Row | Binder | SPOT intensity
17 | B1 | 0
18 | B2 | 0
19 | B3 | 0
20 | B4 | 0

molecular target: T4, Boi2, P39969; assay: SPOT array; conditions: median of control spots 1161

Row | Binder | SPOT intensity
21 | B1 | 0
22 | B2 | 0
23 | B3 | 0
24 | B4 | 0

molecular target: T5, Bud14, P27637; assay: SPOT array; conditions: median of control spots 956

Row | Binder | SPOT intensity
25 | B1 | 1
26 | B2 | 0
27 | B3 | 13
28 | B4 | 0

molecular target: T6, Bzz1-1, P38822; assay: SPOT array; conditions: median of control spots 4446

Row | Binder | SPOT intensity
29 | B1 | 0
30 | B2 | 0
31 | B3 | 0
32 | B4 | 1

molecular target: T7, Bzz1-2, P38822; assay: SPOT array; conditions: median of control spots 4538

Row | Binder | SPOT intensity
33 | B1 | 0
34 | B2 | 28
35 | B3 | 0
36 | B4 | 0

molecular target: T8, Cdc25, P04821; assay: SPOT array; conditions: median of control spots 969

Row | Binder | SPOT intensity
37 | B1 | 0
38 | B2 | 0
39 | B3 | 37
40 | B4 | 0

molecular target: T9, Cyk3, Q07533; assay: SPOT array; conditions: median of control spots 1451

Row | Binder | SPOT intensity
41 | B1 | 2
42 | B2 | 0
43 | B3 | 0
44 | B4 | 0

molecular target: T10, Fus1, P11710; assay: SPOT array; conditions: median of control spots 1200

Row | Binder | SPOT intensity
45 | B1 | 0
46 | B2 | 0
47 | B3 | 0
48 | B4 | 0

molecular target: GST; assay: SPOT array; conditions: median of control spots 978

Row | Binder | SPOT intensity
49 | B1 | 0
50 | B2 | 1
51 | B3 | 1
52 | B4 | 0

molecular target: T11, Hof1, Q05080; assay: SPOT array; conditions: median of control spots 4086

Row | Binder | SPOT intensity
53 | B1 | 307
54 | B2 | 0
55 | B3 | 2
56 | B4 | 0

molecular target: T12, Hse1, P38753; assay: SPOT array; conditions: median of control spots 1727

Row | Binder | SPOT intensity
57 | B1 | 0
58 | B2 | 1
59 | B3 | 5
60 | B4 | 0

molecular target: T13, Lsb1, P53281; assay: SPOT array; conditions: median of control spots 388

Row | Binder | SPOT intensity
61 | B1 | 44
62 | B2 | 211
63 | B3 | 387
64 | B4 | 1

molecular target: T14, Lsb3, P43603; assay: SPOT array; conditions: median of control spots 406

Row | Binder | SPOT intensity
65 | B1 | 21
66 | B2 | 60
67 | B3 | 25
68 | B4 | 14

molecular target: T15, Lsb4, P32793; assay: SPOT array; conditions: median of control spots 397

Row | Binder | SPOT intensity
69 | B1 | 67
70 | B2 | 115
71 | B3 | 87
72 | B4 | 39

molecular target: Myo3, P36006; assay: SPOT array; conditions: median of control spots 468

Row | Binder | SPOT intensity
73 | B1 | 51
74 | B2 | 44
75 | B3 | 40
76 | B4 | 32

molecular target: T16, Myo5, Q04439; assay: SPOT array; conditions: median of control spots 471

Row | Binder | SPOT intensity
77 | B1 | 77
78 | B2 | 103
79 | B3 | 65
80 | B4 | 74

molecular target: T17, Nbp2, Q12163; assay: SPOT array; conditions: median of control spots 357

Row | Binder | SPOT intensity
81 | B1 | 57
82 | B2 | 989
83 | B3 | 9
84 | B4 | 3

molecular target: T18, Pex13, P80667; assay: SPOT array; conditions: median of control spots 1341

Row | Binder | SPOT intensity
85 | B1 | 35
86 | B2 | 73
87 | B3 | 47
88 | B4 | 219

molecular target: T19, Pin3, Q06449; assay: SPOT array; conditions: median of control spots 2171

Row | Binder | SPOT intensity
89 | B1 | 54
90 | B2 | 61
91 | B3 | 40
92 | B4 | 125

molecular target: Rvs167, P39743; assay: SPOT array; conditions: median of control spots 2707
Sequence (P39743 419-482): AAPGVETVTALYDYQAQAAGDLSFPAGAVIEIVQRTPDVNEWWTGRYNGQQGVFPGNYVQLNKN

Row | Binder | SPOT intensity
93 | B1 | 2
94 | B2 | 10
95 | B3 | 0
96 | B4 | 0

molecular target: Sho1, P40073; assay: SPOT array; conditions: median of control spots 1148
Sequence (P40073 287-367): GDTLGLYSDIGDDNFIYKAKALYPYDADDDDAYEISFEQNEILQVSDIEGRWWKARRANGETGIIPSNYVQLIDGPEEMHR

Row | Binder | SPOT intensity
97 | B1 | 25
98 | B2 | 21
99 | B3 | 39
100 | B4 | 46

molecular target: T20, Sla1-2, P32790; assay: SPOT array; conditions: median of control spots 712

Row | Binder | SPOT intensity
101 | B1 | 7
102 | B2 | 19
103 | B3 | 6
104 | B4 | 7

molecular target: T21, Sla1-3, P32790; assay: SPOT array; conditions: median of control spots 5475

Row | Binder | SPOT intensity
105 | B1 | 0
106 | B2 | 42
107 | B3 | 0
108 | B4 | 0
